Tests used:
HA:AvrBsT = HA:AvrBsT (Xanthomonas euvesicatoria, UniProt A0ABS8LK00); format: biochemical
AtTIPSY1 = target: T1, AtTIPSY1 (Arabidopsis thaliana, UniProt Q8GYK2); assay: colorimetric p-nitrophenol release at […] nm; format: biochemical; conditions: 20 mM HEPES, 150 mM NaCl, pH 7.52-7.55, 0.01% Triton X-100, room temperature
T1 sequence (Q8GYK2 1-262): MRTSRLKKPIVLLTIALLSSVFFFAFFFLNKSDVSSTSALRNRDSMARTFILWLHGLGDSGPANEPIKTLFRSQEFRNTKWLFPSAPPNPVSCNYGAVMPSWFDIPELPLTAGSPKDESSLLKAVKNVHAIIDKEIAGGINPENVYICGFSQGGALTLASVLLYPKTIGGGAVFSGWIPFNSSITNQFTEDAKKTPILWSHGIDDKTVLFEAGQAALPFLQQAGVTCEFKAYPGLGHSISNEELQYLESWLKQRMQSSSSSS

[1] = test system: CC(=O)Oc1ccc([N+](=O)[O-])cc1; assay: purified protein; conditions: 20 mM HEPES, 150 mM NaCl, pH 7.52-7.55, 0.01% Triton X-100, room temperature; pH 7.0
[2] = test system: CCCC(=O)Oc1ccc([N+](=O)[O-])cc1; assay: purified protein; conditions: 20 mM HEPES, 150 mM NaCl, pH 7.52-7.55, 0.01% Triton X-100, room temperature; pH 7.0
[3] = test system: CCCCC(=O)Oc1ccc([N+](=O)[O-])cc1; assay: purified protein; conditions: 20 mM HEPES, 150 mM NaCl, pH 7.52-7.55, 0.01% Triton X-100, room temperature; pH 7.0
purified protein [4] = substrate: CC(=O)Oc1ccc([N+](=O)[O-])cc1; assay: purified protein; conditions: 20 mM HEPES, 150 mM NaCl, pH 7.52-7.55, 0.01% Triton X-100, room temperature; pH 7.0; remark: listed apart in the source
purified protein [5] = substrate: CCCC(=O)Oc1ccc([N+](=O)[O-])cc1; assay: purified protein; conditions: 20 mM HEPES, 150 mM NaCl, pH 7.52-7.55, 0.01% Triton X-100, room temperature; pH 7.0; remark: listed apart in the source
purified protein [6] = substrate: CCCCC(=O)Oc1ccc([N+](=O)[O-])cc1; assay: purified protein; conditions: 20 mM HEPES, 150 mM NaCl, pH 7.52-7.55, 0.01% Triton X-100, room temperature; pH 7.0; remark: listed apart in the source

## CC(=O)SCCNC(=O)CCNC(=O)[C@H](O)C(C)(C)COP(=O)(O)OP(=O)(O)OC[C@H]1O[C@@H](n2cnc3c(N)ncnc32)[C@H](O)[C@@H]1OP(=O)(O)O [[Acetyl-1-^14C]-Acetyl Coenzyme A]
HA:AvrBsT
  autoradiography of auto-acetylation on anti-HA beads: led to auto-acetylation of the wild type protein, but not the enzymatically inactive mutant

## CCCCCC(=O)Oc1ccc([N+](=O)[O-])cc1 [pNP hexanoate]
AtTIPSY1
  Michaelis-Menten parameters: allowed the protein to hydrolyze para-nitrophenyl hexanoate, like AtTIPSY1 is able to

## AtSOBER1 (Arabidopsis thaliana; F65L)
[1]
  Km: 3.12 ± 0.44 × 10^-4 M
  kcat: 1.88 ± 0.23 × 10^2 s-1
[2]
  Km: 4.80 ± 0.23 × 10^-5 M
  kcat: 1.10 ± 0.18 × 10^1 s-1

## AtSOBER1 (Arabidopsis thaliana; L63A)
[1]
  Km: 6 mM
[2]
  Km: 30 µM
[3]
  Km: 4 µM

## AtTIPSY1 (Arabidopsis thaliana; L110F)
[1]
  Km: 1.75 ± 0.33 × 10^-3 M
  kcat: 4.82 ± 0.32 × 10^2 s-1

B1: AtSOBER1 (Arabidopsis thaliana) (protein)
chain: MARTFILWLHGLGDSGPANEPIQTQFKSSELSNASWLFPSAPFNPVTCNNGAVMRSWFDVPELPFKVGSPIDESSVLEAVKNVHAIIDQEIAEGTNPENVFICGLSQGGALTLASVLLYPKTLGGGAVLSGWVPFTSSIISQFPEEAKKTPILWSHGTDDRMVLFEAGQAALPFLKEAGVTCEFKAYPGLGHSISNKELKYIESWIKRRLKGSSSTCLQLNCLKEMFH
Purified protein [4]
  Km: 158 µM
Purified protein [5]
  Km: 227 µM
Purified protein [6]
  Km: 327 µM

B2: AtTIPSY1 (Arabidopsis thaliana) (protein)
chain: T1 sequence (Q8GYK2 1-262)
Purified protein [4]
  Km: 1.75 ± 0.18 × 10^-3 M
Purified protein [5]
  Km: 5.03 ± 0.41 × 10^-4 M
Purified protein [6]
  Km: 3.07 ± 0.29 × 10^-4 M
  kcat: 6.46 ± 0.39 × 10^1 s-1
